Sequences and labels used below:
B1: [K^26(Y-shaped-mPEG40KD)]-Cmpd 60 (peptide)
peptide: CNTATCATQRLANFLVHSSNNFGPK(Y‑shaped‑mPEG40KD)LPPTNVGSNTY-NH2
modifications: ends and bridges not checked
notes: also called Cmpd 79
B2: [K^26(mPEG40KD)]-Cmpd 60 (peptide)
peptide: CNTATCATQRLANFLVHSSNNFGPK(mPEG40KD)LPPTNVGSNTY-NH2
modifications: ends and bridges not checked
notes: also called Cmpd 77
B3: [K^28(mPEG40KD)]-Cmpd 65 (peptide)
peptide: CNTATCATQRLANFLVHSSNNFGPILK(mPEG40KD)PTNVGSNTY-NH2
modifications: ends and bridges not checked
notes: also called Cmpd 83
B4: [K^27(mPEG40KD)]-Cmpd 64 (peptide)
peptide: CNTATCATQRLANFLVHSSNNFGPIK(mPEG40KD)PPTNVGSNTY-NH2
modifications: ends and bridges not checked
notes: also called Cmpd 82
B5: [K^36(mPEG40KD)]-Cmpd 58 (peptide)
peptide: CNTATCATQRLANFLVHSSNNFGPILPPTNVGSNK(mPEG40KD)Y-NH2
modifications: ends and bridges not checked
notes: also called Cmpd 96
B6: [K^29(mPEG40KD)]-Cmpd 66 (peptide)
peptide: CNTATCATQRLANFLVHSSNNFGPILPK(mPEG40KD)TNVGSNTY-NH2
modifications: ends and bridges not checked
notes: also called Cmpd 84
B7: [K^18(mPEG40KD)]-Cmpd 58 (peptide)
peptide: CNTATCATQRLANFLVK(mPEG 40 kDa)SSNNFGPILPPTNVGSNTY-NH2
modifications: ends and bridges not checked
notes: also called Cmpd 90
B8: [K^23(mPEG40KD)]-Cmpd 58 (peptide)
peptide: CNTATCATQRLANFLVHSSNNK(mPEG 40 kDa)GPILPPTNVGSNTY-NH2
modifications: ends and bridges not checked
notes: also called Cmpd 86
B9: [K^25(mPEG40KD)]-Cmpd 63 (peptide)
peptide: CNTATCATQRLANFLVHSSNNFGK(mPEG40KD)ILPPTNVGSNTY-NH2
modifications: ends and bridges not checked
notes: also called Cmpd 81
B10: [K^32(mPEG40KD)]-Cmpd 58 (peptide)
peptide: CNTATCATQRLANFLVHSSNNFGPILPPTNK(mPEG40KD)GSNTY-NH2
modifications: ends and bridges not checked
notes: also called Cmpd 92
B11: [K^21(mPEG40KD)]-Cmpd 59 (peptide)
peptide: CNTATCATQRLANFLVHSSK(mPEG 40 kDa)NFGPILPPTNVGSNTY-NH2
modifications: ends and bridges not checked
notes: also called Cmpd 76
B12: [K^34(mPEG40KD)]-Cmpd 58 (peptide)
peptide: CNTATCATQRLANFLVHSSNNFGPILPPTNVGK(mPEG40KD)NTY-NH2
modifications: ends and bridges not checked
notes: also called Cmpd 94
B13: [K^17(mPEG40KD)]-Cmpd 58 (peptide)
peptide: CNTATCATQRLANFLK(mPEG 40 kDa)HSSNNFGPILPPTNVGSNTY-NH2
modifications: ends and bridges not checked
notes: also called Cmpd 89
B14: [K^30(mPEG40KD)]-Cmpd 58 (peptide)
peptide: CNTATCATQRLANFLVHSSNNFGPILPPK(mPEG40KD)NVGSNTY-NH2
modifications: ends and bridges not checked
notes: also called Cmpd 87
B15: [K^20(mPEG40KD)]-Cmpd 58 (peptide)
peptide: CNTATCATQRLANFLVHSK(mPEG 40 kDa)NNFGPILPPTNVGSNTY-NH2
modifications: ends and bridges not checked
notes: also called Cmpd 91
B16: [K^31(mPEG40KD)]-Cmpd 61 (peptide)
peptide: CNTATCATQRLANFLVHSSNNFGPILPPTK(mPEG40KD)VGSNTY-NH2
modifications: ends and bridges not checked
notes: also called Cmpd 78
B17: [K^24(mPEG40KD)]-Cmpd 62 (peptide)
peptide: CNTATCATQRLANFLVHSSNNFK(mPEG40KD)PILPPTNVGSNTY-NH2
modifications: ends and bridges not checked
notes: also called Cmpd 80
B18: [K^35(mPEG40KD)]-Cmpd 58 (peptide)
peptide: CNTATCATQRLANFLVHSSNNFGPILPPTNVGSK(mPEG40KD)TY-NH2
modifications: ends and bridges not checked
notes: also called Cmpd 95
B19: [K^33(mPEG40KD)]-Cmpd 58 (peptide)
peptide: CNTATCATQRLANFLVHSSNNFGPILPPTNVK(mPEG40KD)SNTY-NH2
modifications: ends and bridges not checked
notes: also called Cmpd 93
B20: [K^26(mPEG40KD)]-Cmpd 58 (peptide)
peptide: CNTATCATQRLANFLVHSSNNFGPK(mPEG40KD)LPPTNVGSNTY-NH2
modifications: ends and bridges not checked
notes: also called Cmpd 88
B21: [K^22(mPEG40KD)]-Cmpd 58 (peptide)
peptide: CNTATCATQRLANFLVHSSNK(mPEG 40 kDa)FGPILPPTNVGSNTY-NH2
modifications: ends and bridges not checked
notes: also called Cmpd 85
B22: [K^21(mPEG40KD)]-Cmpd 51 (peptide)
peptide: KCNTATCATQRLANFLVRSSK(mPEG 40 kDa)NLGPVLPPTNVGSNTY-NH2
modifications: ends and bridges not checked
notes: also called Cmpd 69
B23: [K^31(mPEG40KD)]-Cmpd 55 (peptide)
peptide: KCNTATCATQRLANFLVRSSNNLGPVLPPTK(mPEG40KD)VGSNTY-NH2
modifications: ends and bridges not checked
notes: also called Cmpd 73
B24: [K^21(mPEG40KD)]-Cmpd 52 (peptide)
peptide: CNTATCATQRLANFLVRSSK(mPEG 40 kDa)NLGPVLPPTNVGSNTY-NH2
modifications: ends and bridges not checked
notes: also called Cmpd 70
B25: [K^26(mPEG40KD)]-Cmpd 54 (peptide)
peptide: CNTATCATQRLANFLVRSSNNLGPK(mPEG40KD)LPPTNVGSNTY-NH2
modifications: ends and bridges not checked
notes: also called Cmpd 72
B26: [K^31(mPEG40KD)]-Cmpd 56 (peptide)
peptide: CNTATCATQRLANFLVRSSNNLGPVLPPTK(mPEG40KD)VGSNTY-NH2
modifications: ends and bridges not checked
notes: also called Cmpd 74
B27: rat amylin, KCNTATCATQRLANFLVRSSNNLGPVLPPTNVGSNTY-NH2 (peptide)
peptide: KCNTATCATQRLANFLVRSSNNLGPVLPPTNVGSNTY-NH2
modifications: ends and bridges not checked
notes: also called Cmpd 49

Ends that are not written are not given here. Y‑shaped‑mPEG40KD = Y-shaped methoxy-PEG of 40 kDa attached to the Lys side chain; mPEG40KD = methoxy-PEG of 40 kDa

The first assay has as its target T1, human amylin receptor 3 (human, UniProt P30988 25-474; O60896 24-148).
T1 sequence (looked up) 1: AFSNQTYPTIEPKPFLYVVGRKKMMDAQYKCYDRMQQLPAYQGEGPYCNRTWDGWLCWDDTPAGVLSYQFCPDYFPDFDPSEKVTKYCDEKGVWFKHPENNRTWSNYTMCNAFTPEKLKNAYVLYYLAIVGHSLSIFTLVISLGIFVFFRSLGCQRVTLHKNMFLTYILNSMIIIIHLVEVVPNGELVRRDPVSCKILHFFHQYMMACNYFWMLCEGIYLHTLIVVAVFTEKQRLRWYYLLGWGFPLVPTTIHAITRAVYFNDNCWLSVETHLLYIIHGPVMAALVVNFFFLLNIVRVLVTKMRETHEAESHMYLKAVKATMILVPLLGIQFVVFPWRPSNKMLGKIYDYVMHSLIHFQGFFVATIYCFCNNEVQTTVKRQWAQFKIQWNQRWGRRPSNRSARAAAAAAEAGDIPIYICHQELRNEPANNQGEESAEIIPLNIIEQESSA
T1 sequence (looked up) 2: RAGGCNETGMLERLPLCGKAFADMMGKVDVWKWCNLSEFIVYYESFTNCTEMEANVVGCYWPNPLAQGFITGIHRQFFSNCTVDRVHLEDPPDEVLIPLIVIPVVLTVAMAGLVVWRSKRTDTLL
Description: cell-based or functional assay.
With B1, the “Functional EC50, Human AMY3” value was 1.74 nM.
The same measure, in the same setting: next, B2: 0.078 nM; B3: 0.2 nM; B4: 0.2 nM.
Still for that read-out and setting: next, B5: 3.07 nM; B6: 0.11 nM.
Still for that read-out and setting: next, B7: 0.85 nM; B8: 2.82 nM; B9: 0.086 nM.
In the case of B10, the “Functional EC50, Human AMY3” value was 24.7 nM.
Consider B11, for which the “Functional EC50, Human AMY3” value came out at 1.75 nM.
Turning to B12, the “Functional EC50, Human AMY3” value is 0.034 nM.
Same read-out and setting: next, B13: 2.23 nM; B14: 4.25 nM.
Same read-out and setting: the result for B15 reads 5.51 nM.
Take B16: the “Functional EC50, Human AMY3” value came out at 0.1 nM.
Turning to B17, the “Functional EC50, Human AMY3” value amounted to 0.41 nM.
Same read-out and setting: next, B18: 0.122 nM; B19: 1.69 nM.
Consider B20, for which the “Functional EC50, Human AMY3” value stood at 0.082 nM.
On to B21, for which the “Functional EC50, Human AMY3” value was 1.66 nM.

The target of the next assay is T1, human amylin receptor 3. Description: competition with 125I-rat amylin, human AMY3 receptor.
Usually IC50 stands for the concentration at which inhibition is half-maximal. For B1, the IC50 turned out to be 1130 nM.
In the case of B2, the IC50 was determined as 60 nM.
Still for that read-out and setting: the result for B3 reads 46 nM; that for B4, 87 nM.
B5 registered a half-maximal inhibitory concentration (IC50) of 984 nM.
On the same count and under the same terms, next, B6: 47 nM.
Consider B7, for which the 50% inhibitory concentration (IC50) is 238 nM.
On the same count and under the same terms, next, B8: 240 nM; B9: 48 nM.
On to B10, for which the IC50 is 1000 nM.
B11 came in with an IC50 of 388 nM. This IC50 is about 2.6-fold lower than that of the molecule before.
In turn, B12 yielded a 50% inhibitory concentration (IC50) of 77 nM. Against the preceding molecule, the IC50 is about 5-fold lower.
Still for that read-out and setting: the result for B13 reads 334 nM; that for B14, 685 nM.
On the same count and under the same terms, the result for B15 reads 918 nM; that for B16, 80 nM.
With B17, the IC50 is 111 nM.
For B18, the IC50 stood at 143 nM.
Molecule B19 gave a concentration for half-maximal inhibition (IC50) of 860 nM.
The same measure, in the same setting: next, B20: 74 nM.

Another assay addresses T2, amylin receptor of rat nucleus accumbens membranes (rat).
T2 chain 1: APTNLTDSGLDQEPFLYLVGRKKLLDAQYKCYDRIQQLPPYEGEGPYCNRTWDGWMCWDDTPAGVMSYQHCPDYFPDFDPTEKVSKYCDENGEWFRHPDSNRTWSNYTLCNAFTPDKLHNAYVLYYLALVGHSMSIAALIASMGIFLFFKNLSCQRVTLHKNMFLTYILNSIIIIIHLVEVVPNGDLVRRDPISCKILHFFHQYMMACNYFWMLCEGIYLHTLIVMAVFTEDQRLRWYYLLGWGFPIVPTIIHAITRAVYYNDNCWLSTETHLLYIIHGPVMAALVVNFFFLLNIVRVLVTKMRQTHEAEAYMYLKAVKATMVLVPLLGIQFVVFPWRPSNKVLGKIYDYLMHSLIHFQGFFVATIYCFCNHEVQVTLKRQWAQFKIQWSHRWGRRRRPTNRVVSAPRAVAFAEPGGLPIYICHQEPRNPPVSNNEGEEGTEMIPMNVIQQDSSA
T2 chain 2: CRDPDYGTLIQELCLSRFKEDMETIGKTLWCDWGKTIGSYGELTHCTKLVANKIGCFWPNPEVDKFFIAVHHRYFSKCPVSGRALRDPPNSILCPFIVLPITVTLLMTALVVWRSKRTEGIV
Nature of the assay: competition with 125I-rat amylin, rat nucleus accumbens membranes.
On to B3, for which the IC50 came out at 53 nM.
With B4, the IC50 is 51 nM.
Turning to B6, the IC50 came out at 27 nM.
Still for that read-out and setting: next, B8: 611 nM.
Same read-out and setting: next, B9: 31 nM; B11: 131 nM; B14: 599 nM.
On to B16, for which the 50% inhibitory concentration (IC50) was found to be 61 nM.
On the same count and under the same terms, next, B17: 79 nM.
Same read-out and setting: next, B22: 104 nM; B23: 86 nM.
Same read-out and setting: the result for B24 reads 112 nM.
For the molecule B21, the concentration for half-maximal inhibition (IC50) was found to be 148 nM.
Still for that read-out and setting: the result for B25 reads 54 nM; that for B26, 75 nM.

In the next assay the target is T3, amylin receptor of rat nucleus accumbens membranes (rat).
T3 construct: whole, on cells; native tissue membranes; also called RNA membranes
The assay is described as above.
Molecule B27 displayed a half-inhibitory concentration (IC50) of 0.1 nM.
With B1, the IC50 is 132 nM.
On the same count and under the same terms, next, B2: 39 nM.
